Experimental data published in patent publication US20050182242A1, “Global analysis of protein activities using proteome chips” (priority 2001, published 2005).

B1: CMK1: yeast calcium/calmodulin-dependent serine/threonine protein kinase, GST-HisX6 fusion (protein)
chain: MDDKVSEKESSPKQTEEDSEGKMAHVQPASYVNKKKYVFGKTLGAGTFGVVRQAKNTETGEDVAVKILIKKALKGNKVQLEALYDELDILQRLHHPNIVAFKDWFESKDKFYIITQLAKGGELFDRILKKGKFTEEDAVRILVEILSAVKYMHSQNIVHRDLKPENLLYIDKSDESPLVVADFGIAKRLKSDEELLYKPAGSLGYVAPEVLTQDGHGKPCDIWSIGVITYTLLCGYSAFRAERVQDFLDECTTGEYPVKFHRPYWDSVSNKAKQFILKALNLDPSKRPTAAELLEDPWIICTELKTHNLLPGLKEGLDARQKFRNSVERVRLNMKIQKLRDLYLEQTESDSDFDEGSQANGSVPPLKATDTSQLSKKLSEEEQSKLKSELTSKAFAQLVNTVLAEKEKFLNINRVCSSDSDLPGSDIKSLDEAKEKPEGKDTKTEE
modifications: left off: a dimerising Fc or GST
notes: yeast calcium/calmodulin-dependent serine/threonine protein kinase, GST-HisX6 fusion
B2: MY04: yeast class V myosin heavy chain, GST-HisX6 fusion (protein, UniProt P32492 1-1471, looked up)
Myosin-4: MSFEVGTKCWYPHKEQGWIGGEVTKNDFFEGTFHLELKLEDGETVSIETNSFENDDDHPTLPVLRNPPILESTDDLTTLSYLNEPAVLHAIKKRYMNGQIYTYSGIVLIAANPFDKVDHLYSREMIQNYSSKRKDELEPHLFAIAEEAYRFMVHEKANQTVVVSGESGAGKTVSAKYIMRYFASVQESNNREGEVEMSQIESQILATNPIMEAFGNAKTTRNDNSSRFGKYLQILFDENTTIRGSKIRTYLLEKSRLVYQPETERNYHIFYQILEGLPEPVKQELHLSSPKDYHYTNQGGQPNIAGIDEAREYKITTDALSLVGINHETQLGIFKILAGLLHIGNIEMKMTRNDASLSSEEQNLQIACELLGIDPFNFAKWIVKKQIVTRSEKIVTNLNYNQALIARDSVAKFIYSTLFDWLVDNINKTLYDPELDQQDHVFSFIGILDIYGFEHFEKNSFEQFCINYANEKLQQEFNQHVFKLEQEEYVKEEIEWSFIEFSDNQPCIDLIENKLGILSLLDEESRLPSGSDESWASKLYSAFNKPPSNEVFSKPRFGQTKFIVSHYAVDVEYEVEGFIEKNRDSVSLGHLDVFKATTNPIFKQILDNRELRSDDAPEEQNTEKKIMIPARLSQKKPTLGSMFKKSLGELMAIINSTNVHYIRCIKPNSEKKPWEFDNLMVLSQLRACGVLETIRISCAGFPSRWTFDEFVQRYFLLTDYSLWSGILYNPDLPKEAIVNFCQSILDATISDSAKYQIGNTKIFFKAGMLAFLEKLRTNKMNEICIIIQKKIRARYYRLQYLQTMESIKKCQSQIRSLLVRTRVDHELKTRAAILLQTNIRALWKREYYRAAIGQIIKLQCTCKRKLILDSVNRKFMLMAAVIIQSYIRSYGHKTDYRTLKRSSILVQSAMRMQLARRRYIVLQKEVEERNIRASYGIGLLEEAIEFKNSFILNLEMLNDSYTRLTQLLQGDLSNIPSKQRQEYETIVNGYNDKISKLKTLQVEIMNTLNKKNALKERKKKQSSLIQSHMQSLAAIKGNKPSRLSDEVKSMKQELAFIENVIAQDFTTTYSANKNDKVKGLGIAGQQVKPKLVNVIRRESGNPDLLELLMDLNCYTLEVTEGYLKKVNVTEVNGDNVLGPIHVITTVVSSLVRNGLLIQSSKFISKVLLTVESIVMSLPKDETMLGGIFWLSNLSRLPAFAANQKTLYEANGGDEKDKLTLIYLNDLENETLKVFDKIYSTWLVKFMKHASAHIEIFDMVLNEKLFKNSGDEKFAKLFTFLNEFDAVLCKFQVVDSMHTKIFNDTLKYLNVMLFNDLITKCPALNWKYGYEVDRNIERLVSWFEPRIEDVRPNLIQIIQAVKILQLKISNLNEFKLLFDFWYALNPAQIQAILLKYKPANKGEAGVPNEILNYLANVIKRENLSLPGKMEIMLSAQFDSAKNHLRYDTSAITQNSNTEGLATVSKIIKLDRK
modifications: GST-HisX6 tag
notes: yeast class V myosin heavy chain, GST-HisX6 fusion

Molecular target: T1, calmodulin (Homo sapiens, UniProt P0DP23)
T1 construct: purchased CalBiochem, USA
Experiment: Yeast proteome chip probed with biotinylated calmodulin
Type: binding
Conditions: biotinylated calmodulin in the presence of calcium
Excerpt: To test for protein-protein interactions, the yeast proteome was probed with calmodulin (11). Calmodulin is a highly conserved calcium-binding protein involved in many calcium-regulated cellular processes and has many known physical partners (Hook et al., 2001, Annu. Rev. Pharmacol. Toxicol. 41:471). The calmodulin probe was biotinylated, and bound probe was detected using Cy3-labeled streptavidin. As a control, the yeast proteome was probed with Cy3-labeled streptavidin alone.
Generally, protein-protein interactions can be assayed as follows. Blocked proteome chips are washed three to five times in PBS buffer, and the extra liquid on the glass surface is removed by tapping the slides vertically on a KIMWIPE™. 200 ∞l of biotinylated protein probe is added to the proteome chip and immediately covered by a hydrophobic plastic cover slip (GRACE BIO-LABS™, USA). After trapped air bubbles are removed, the chip is incubated in a humidity chamber at room temperature (RT) for one hour. To remove the cover slip, the chip is immersed into large volume of PBS buffer (>50 ml), and the slip should float away. The chip is then moved to a second PBS bath (>50 ml) and washed 3×5 min with shaking at RT. After removing extra liquid on the surface of the chip, at least 150 μl of Cy3- or Cy5-conjugated streptavidin (PIERCE™, USA; 1:2000 to 1:4000 dilution) is added to the surface and covered by a hydrophobic plastic cover slip (GRACE BIO-LABS™, USA). The chip is incubated for greater than 30 min in the dark at RT. The chip is then washed as described above. To completely remove the liquid on the chip, the chip is spun to dryness at 1500-2000 rpm for 5-10 min at RT.
• 1. S. Fields, Y. Kohara, D. J. Lockhart, Proc. Natl. Acad. Sci. 96, 8825 (1999); A. Goffeau et al., Science 274, 563 (1996). • 2 P. Ross-Macdonald et al., Nature 402, 413 (1999); J. L., DeRisi, V. R. Iyer, P. O. Brown, Science 278, 680 (1997); E. A. Winzeler et al., Science 285, 901 (1999). P. Uetz et al., Nature 403, 623 (2000); T. Ito et al., Proc. Natl. Acad. Sci. USA. 97, 1143 (2000) • 3 H. Zhu, M. Snyder, Curr. Opin. Chem. Biol. 5, 40 (2001). • 4 M. R. Martzen et al., Science 286, 1153 (1999). • 5 H. Zhu et al., Nat. Genet. 26, 283 (2000). • 6 G. MacBeath, S. L. Schreiber, Science 289, 1760 (2000). • 7 A. Caveman, J. Cell Sci. 113, 3543 (2000). • 8 P. Arenkov et al., Anal. Biochem 278, 123 (2000). • 9 D. A. Mitchell, T. K. Marshall, R. J. Deschenes, Yeast 9, 715 (1993). The expression vector pEGH was created by inserting an RGS-HisX6 epitope tag between the GST gene and the polycloning site of pEG(KG). The yeast ORFs were cloned using the strategy described previously (5), except every step was done in a 96-well format. Plasmid DNAs confirmed by DNA sequencing were reintroduced into both yeast (Y258) and E. coli (DH5a). […] 0.1 mM calcium was present in buffers in all subsequent steps. The chip was washed three times with PBS at RT. Cy3-conjugated streptavidin (Jackson IR, USA) (1:5000 dilution) was added to the chip and incubated for 30 min at RT. After extensive washing, the chip was spun dry and scanned using a microarray scanner; the data was subsequently acquired with the GENEPIX™ array densitometry software (Axon, USA). • 12 S. S. Hook, A. R. Means, Annu. Rev. […]

Molecule	calmodulin binding
B1	identified
B2	identified
